This note sets out measurements from US20210085770A1.

The target in experiment [1] is recombinant SARS-CoV-2 S1 protein expressed from insect (Sf9) cells (S1-His, SinoBiological, Cat. No. 40591-V08B1) (SARS-CoV-2) (UniProt P0DTC2). The experiment in a line: ELISA, coated insect-cell S1-His, HRP-conjugated lectin 10 ug/mL. On the technique in general: In an ELISA, binding on a coated surface is turned into a signal by an enzyme label.
The target is the same in experiment [2].

Where two headings read alike, the source gives them in different places.

Maclura pomifera lectin (MPA), sequence (P18674 whole entry): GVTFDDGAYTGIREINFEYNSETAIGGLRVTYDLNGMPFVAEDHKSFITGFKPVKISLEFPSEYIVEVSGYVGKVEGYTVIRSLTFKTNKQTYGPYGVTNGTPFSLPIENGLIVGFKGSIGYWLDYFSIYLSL
Maclura pomifera lectin (MPA), sequence (P18676 whole entry, further chain): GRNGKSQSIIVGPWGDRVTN
Peanut Agglutinin (PNA), lectin from Arachis hypogaea, sequence (P02872 24-259 limits assumed): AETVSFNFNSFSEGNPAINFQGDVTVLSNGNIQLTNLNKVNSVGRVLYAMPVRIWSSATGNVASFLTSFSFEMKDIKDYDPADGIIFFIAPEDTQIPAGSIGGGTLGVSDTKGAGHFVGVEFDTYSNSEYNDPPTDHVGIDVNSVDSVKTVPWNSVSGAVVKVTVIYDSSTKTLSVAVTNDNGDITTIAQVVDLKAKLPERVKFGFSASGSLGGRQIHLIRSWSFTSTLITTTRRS

Consider Maclura pomifera lectin (MPA), for which, in experiment [1], the mean fold increase of OD450 came out at 7.51 fold.

For the substance “Peanut Agglutinin (PNA), lectin from Arachis hypogaea (from UniProt P02872 24-259)”, the mean fold increase of OD450 in experiment [1] turned out to be 22.7 fold.

For “SPM320 IgM anti-TF monoclonal antibody (Abnova, Cat. No. MAB13207)”, the mean fold increase of OD450 in experiment [2] is 5.5 fold.

Take Salvia sclarea lectin (SSA): the mean fold increase of OD450 in experiment [1] stood at 3.97 fold.

For “Tn218 IgM anti-Tn monoclonal antibody (Abnova, Cat. No. MAB6198)”, the mean fold increase of OD450 in experiment [2] amounted to 1.77 fold.

mouse monoclonal IgG3 antibody JAA-F11: in experiment [2], the mean fold increase of OD450 was determined as 3.32 fold.
